The text below walks through data of patent US20110244473A1.

This experiment deals with Death Receptor 5 (human) (UniProt O14763). In words: cell-based or functional assay.
UniProt O14763, sequence (O14763 other isoform, or with tags, fused parts or gaps limits assumed): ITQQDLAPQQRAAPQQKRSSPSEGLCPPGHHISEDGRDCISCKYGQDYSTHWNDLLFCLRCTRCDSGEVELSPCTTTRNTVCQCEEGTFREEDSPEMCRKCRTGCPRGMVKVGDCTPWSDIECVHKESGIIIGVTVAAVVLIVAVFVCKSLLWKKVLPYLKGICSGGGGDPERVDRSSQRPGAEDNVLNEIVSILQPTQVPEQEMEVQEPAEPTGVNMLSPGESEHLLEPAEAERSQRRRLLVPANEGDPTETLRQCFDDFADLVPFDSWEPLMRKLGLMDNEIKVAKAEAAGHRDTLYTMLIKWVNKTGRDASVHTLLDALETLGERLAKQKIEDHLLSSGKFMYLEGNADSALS

For the substance “Flag-tagged human recombinant soluble Apo2L/TRAIL cross-linked by anti-FLAG M2 antibody (from UniProt P50591 114-281) (ligand)”, the rate of DR5 endocytosis came out at 2 fold and the receptor internalizing over 2 hr (fraction of the receptor) was found to be 0.33.
“human recombinant soluble Apo2L/TRAIL, non-tagged (trimeric) (from UniProt P50591 114-281) (ligand)” came in with a rate of DR5 endocytosis of 2 fold and a receptor internalizing over 2 hr (fraction of the receptor) of 0.33.
